# Reference: the domain aggregation screens of Martell et al. (2025)
# Experiment: soluble fraction after stress (log2 fold change); higher = more stays soluble; pooled small domains, quantitative proteomics
# Conditions: stress: 50 degC
# Outline: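 Pooled custom libraries of small protein domains were measured in a high-throughput format, with quantitative proteomics as the read-out. Each library was stressed at 50°C. Aggregation propensity is given as the base-two logarithm of the fold change in how much of each protein stays soluble after the stress. Higher values mean a larger share of the protein remains in solution.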
row,Sequence,soluble fraction (log2)
1,HMSAETREELVGREGVSLTDLRPSGFALFGQEKIDVVSESEFIEEGTSVRIVSVEGSRHIVRAKR,0.0998
2,HMHGTIHSAAYGGDIEAVKKFLAAGADVNANGGGRTPLDLAIQVKNTEIADLLRKHGGKTGDELKA,0.0271
3,HMESENANVNRAMLTGIASMHAGQLETALNKFNEVIQLAPDFAEGWNKRATIFYLMKKFDRSVNDIAQTLK,-0.0738
4,HMNEPMITEVKRINYGSIKEIAKNLDVFKGKNGTVIIDERTNTLILTDLSENIEKMLWSIEITD,-0.896
5,HMSNRIDKIKLNHWLNIRKTSLDVLNNLLSKHLNHKINFENLENLDEQAIEKISEVLSIPKNKLLINDDVP,0.16
6,HMVTDVDYSTFLSQVEEGKVESVTIEDGEILFKGKDENGEARWYITGEMNDPNLVERLKDKVPSFNAPA,0.0853
7,HMADYSMDDNAWNAKKADIDEWFEANPDFSANKAITDGLFSIGDSQVEMRKRYWASIAGVFAGLPNSPIG,-0.152
8,HMTYGYFELKAKNLDSLKQFLKGIAQVESIEEENNGLKVFLKNELESEELSEKLAEAKIFVSHLAKKK,0.0782
9,HMHSVIALTIPADYAGLRLDQALAKLLPNWSRSRLQTWIAENRVILDGQITTIKQKVWGNELIQISPQD,-1.45
10,HMEDTFEYPVSVNGKLRFKIELPVSMEKDEIRNIVLNDERAKKWLATGTLTNLIVVPNRIINIVIK,-0.124
11,HMGSLVKLQSAAELHQAGRSAEAVPILLEVLATNPRLVDGWEILANALEKLGRLDEALAALKKTVALSPPG,-0.694
12,HMNNPISMQKLRQVIRLYGQGKGTKSINSMLGVSRNTIKKYLQVYHSSGINYESFLAMSDKELSAVFLV,-0.398
13,HMFIPMTDAQRHLFANKLAKLPELSEYSRGTESYEDFAIRIADMLLEPPKFRMFYPLLEQLGF,-1.88
14,HMANMTAKQINMFGDKLSRDKDFQSYYIAKSGDSREQYAQDIKGKLLDPFYVNAWMPYLEKIGFVPS,0.00797
15,HMKFKDYYAALGIDRNADLEQIKKAYRKLARQYHPDVSKAPDAEARFKDAAEAYATLKNPEKRAAYDELGS,0.062
16,HMQTQYIVDTKTTLLVRTGPGKSNSQFGRLKNGETINVYAIKNGWAEISYNGKTGYVSEQYIKLA,-3.12
17,HMGNIYKALLGKLEKQLGFLPEGTKLPPEQELAEKFGVSKPTLRRALAELAVRGIIVKQNGIGSVVAGS,-0.142
18,HMVDIIMDLLEAVAQARPADAFIKSLHIQYQERGGLSKKQLQGLYGKAAKTAGIPPGKLATLEAIILKRP,-1.38
19,HMSGTMYATAEVNVRSTYSSDGTIYGTLSKGTAVEITGTTDNGWVRVKYNGTTAYVYADYLSWKAP,-0.671
20,HMQPNVTRERILAAAMTVFAQKGWQKTSLDEVAAAAGMTKGAIYWHFRNKNDLFFALLDARLQRD,-1.97
21,HMELLPFEFARANRVLLRVNESDLVVSPDANHSAVTEILRLNNNIETIKSVDAEAFDKILSSIYSG,-0.765
22,HMEGTEILVNIRKGMTKEEIASLLVSKGLVEDKNTFLVQTALYTSDRYPIQPGSYTLNTAQTPEEMLAVMT,0.0128
23,HMTFPYTSLKDAPKNMKEIDGVPLTLDQVNQIAKVADSIGVSKEKNGYAIAKSQFKKSHHIENNRWVKNK,0.0239
24,HMQSISLEEAKSAALDDAQLGIDEVEFLKTERNTDGDTSYYDIQFLVNGTIYKYQINTETGAILHVDYEA,-0.052
25,HMRLSAADLQSYLKGMDYPASRQDLIAHARGHNAPEEAVATLEQFSDRTYRSAADVSVEFGRE,0.25
26,HMKFLYQKAREEIISLIQDGEIKPSEKIMPERELSELLGYNRMTIKKAINSLVAEGVLMKKRGAGTFLLG,-0.387
27,HMASMHDGVAARLRAMVFERELAPGEFIDERRLAQQWQISRTPLREALKVLAAEGLVELVPRRGARVV,-0.298
28,HMASSRPLAEGDFVRLRAGGATGRIESIKGQKATVQMGGLKVHAPLRDLLPVAEPIKQVSTASNT,0.0407

row,Sequence,soluble fraction (log2)
1,HMESFGVAIKRLREAQGWTRADFLRQLGKTGYYMHATTLKRIEEGEQIAKVHEAVIISRLFGVTVEEMG,-2.94
2,HMPDLKIGKDHRLAEYIETKIAEDGYSPGAVLGEIKAKGLEFETEISKPTLYSYIDKGIFLTITNKELPV,0.105
3,HMRAEPNSNYSLAIIYKNRYDIAVKKKDAVKEVEYGKMVYEYLNKYVVLSGNKSAKYKKILNYFSSY,-3.04
4,HMLEQEDMYGYQMIETLRERSEHSFDLKAGTLYPLLHALEQKGLITARDEASAAGRPRRYYHLTDAG,-0.144
5,HMDALTLSIDAQGALYWNGQPVSRELAAQRFVEAAAQRPQPELHLRADQNVAYRHVAMTLADASRAGLTR,-0.0244
6,HMEVPQKTLEILEPWRGRKGFLIPVLQAVQHEFGYVPKEAIETVSREMKMPTAEIYGVVTFYAQFH,-0.493
7,HMDNREKLRQEFLENLKELQEQNDIPQQEIDRVILDYDGVAEFLEDEGALKRYGGQLVDMTAYRAGAIPS,-0.0987
8,HMTKRTVKSVARKIADFNRERHRMPTYEEMLTLLAVRSKSVVHFWMNKLLQEGILEKDESGHLTFV,-0.124
9,HMYLELVTKEGGSFDEPDYWGRRKLAYEIAGKTEGNYVVVKYTAEPATSDELDRVLNLNESVIRTKILRK,0.0508
10,HMRGIPEEVADVAIQWVARLDSNEISDADRAAFFAWLDASPINRWAYNDISESWAKLSILNEMGH,-1.6
11,HMPPNRDDEHLQALRDYYAANRRIPSLQRVASLLGFSSRSAAVKLMGRLADEGFIERTADDDAWITGKRFF,-1.19
12,HMQVSDVTTIRALVEEVLSSSPQQLAQYRAGKLSLKGYFVGQVMKKGKGQLNAAAVNNLLDEIL,-0.185
13,HMNMSVGAALRRRRNELGMTLRELADEAELTSGFLSQVENDRVSPSLKSLGRIAEVLRIPLFQLLS,-1.29
14,HMVINTRHTGFVVDDLERFINFYLGLGLKLISRKVESGEYIDKLVGLKGTKLEWAKLSLPDNSMIEILKYH,-0.375
15,HMEPKQIEVPNLVGISSAAARQTLSALGLHAVVKDSIWSETERIDTVLEQNPAGGALIKPEGTVYLRVSR,0.033
16,HMRRELDSEHKRQEILFAAKRLLLAEGYDATSMSRLAKEAGVAPNTLYWYFKDKDELLIAILDELVAE,-1.72
17,HMEDKIIVTVPGEYHLERIDRFLAANLEEDLSRSLIQRYIRENLITVNGEAVRANYKVKTDDEILITFPQ,-0.603
18,HMRNGGHTVYRNNGSLFIVVRDGDKLESVASEFRVSPKKLIKYNDLDIHSNVKTGDMIYIRPKA,-0.236
19,HMKKAIYPGSFDPLTLGHIDIIKRASGIVDELVVGVLNNSAKNSLFSLDERVSMIEEMTKDLPNVSVTSFD,0.136
20,HMEITTEDIAAQVASWIVRLSEDLTSTDRAALQIEFEQWQQTDSRRAEIAHKMLSLIGQAEQLRKT,-0.207
21,HMVSIGSQVAKRRRELRLTQQNLAEKMGVSFQAISSWEREEFLPDINKLQKLAAILNTKISYLLEE,-1.3
22,HMSPTEQEKIGLFIKKLREEKNLTQEAFASLLKTSQSAVARIESGNQNITIEQLMKIGEVLNHNIVSI,0.0103
23,HMSMNSWFVEKERDNTRIDKFLNEQMADISRSYIQKLIKDDLVTVDLRPVKANYKVKEGDRVEVTLPEPV,0.0182
24,HMQQDVLKLKSGGNYKGEYINIESAYVLFKPEGGNATQRIKVNEIQMLKLADGTEVIFGGRVK,0.0478
25,HMTVKVPDLRGKTLAEMQRILDDAGLKYEINDSTFSRTAIPGTVREVIPAPGSEVKLGRILFIAINGF,-0.914
26,HMNRTKYYDFEGHPAKVVRLTLPVYLNKIGDEVVVYDSQKFAREASPISESQYNRMVAEIFQP,-0.354
27,HMGTSFEDIDRAVKSVRKPETDEAEKLHAGKTFKDIAETELFQKLTESFAGISDRVNEVIDLYTARAAE,0.143
